The target of assay [1] is human eIF2B decamer, wild type (human) (UniProt Q14232). Put plainly: fluorescence polarisation; FAM-ISRIB (2.5-5 nM) bound to eIF2B, displaced by rising eIF2(αP) (0-2.5 μM) or P-eIF2α-NTD (0-40 μM); equilibrium, 30 min at room temperature; 20 mM HEPES-KOH pH 7.4, 150 mM KCl, 2 mM MgCl2, 1 mM TCEP, 0.05 mg/mL BSA, 0.01% Triton X-100; four-parameter log[inhibitor] fit.
In assay [2] the target is biotinylated, phosphorylated N-terminal domain of human eIF2α (human) (UniProt P05198). Put plainly: BLI; as a3 but with ISRIB (1 μM) in the association and dissociation buffer. A general note: BLI is a label-free optical method that tracks binding on a fibre tip over time.
For assay [3] the target is unchanged. The experiment in a line: BLI; biotinylated P-eIF2α-NTD on streptavidin sensors, eIF2B in solution, without ISRIB (DMSO); 30°C; 20 mM HEPES pH 7.4, 150 mM KCl, 2 mM MgCl2, 1 mM TCEP, 0.05 mg/mL BSA, 0.01% Triton X-100; plateau values of 2-phase association fits against eIF2B concentration (9-150 nM).

As usually defined, the IC50 is the point on the concentration scale where inhibition reaches its midpoint. Read a high IC50 as weaker potency.

In the case of “phosphorylated human eIF2 trimer, eIF2(αP) (from UniProt P05198 1-315; P20042 1-333; P41091 1-472) (complex)”, the IC50 in assay [1] was found to be 250 nM. That is a sub-micromolar value.
In turn, “biotinylated, phosphorylated N-terminal domain of human eIF2α (from UniProt P05198 1-187) (domain or fragment)” came in with an IC50 in assay [1] of 3000 nM.
In the case of “human eIF2B decamer, wild type (from UniProt Q14232 1-305; P49770 1-351; Q9NR50 1-452; Q9UI10 1-523; Q13144 1-721) (complex)”, the values for the K1/2max in assay [2] and in assay [3] were 29.8 nM and 15.2 nM, respectively.

The record behind these values is publication PMC7837216, “ISRIB Blunts the Integrated Stress Response by Allosterically Antagonising the Inhibitory Effect of Phosphorylated eIF2 on eIF2B” (Molecular Cell, 2021).
